Data reported in the supplement of paper PMC6379048.

What was measured:
Assay in all cases: EC50 of free RNA motif oligo competing protein binding to immobilised probe
[1] = target: T1, HNRNPM (UniProt P52272)
T1 sequence: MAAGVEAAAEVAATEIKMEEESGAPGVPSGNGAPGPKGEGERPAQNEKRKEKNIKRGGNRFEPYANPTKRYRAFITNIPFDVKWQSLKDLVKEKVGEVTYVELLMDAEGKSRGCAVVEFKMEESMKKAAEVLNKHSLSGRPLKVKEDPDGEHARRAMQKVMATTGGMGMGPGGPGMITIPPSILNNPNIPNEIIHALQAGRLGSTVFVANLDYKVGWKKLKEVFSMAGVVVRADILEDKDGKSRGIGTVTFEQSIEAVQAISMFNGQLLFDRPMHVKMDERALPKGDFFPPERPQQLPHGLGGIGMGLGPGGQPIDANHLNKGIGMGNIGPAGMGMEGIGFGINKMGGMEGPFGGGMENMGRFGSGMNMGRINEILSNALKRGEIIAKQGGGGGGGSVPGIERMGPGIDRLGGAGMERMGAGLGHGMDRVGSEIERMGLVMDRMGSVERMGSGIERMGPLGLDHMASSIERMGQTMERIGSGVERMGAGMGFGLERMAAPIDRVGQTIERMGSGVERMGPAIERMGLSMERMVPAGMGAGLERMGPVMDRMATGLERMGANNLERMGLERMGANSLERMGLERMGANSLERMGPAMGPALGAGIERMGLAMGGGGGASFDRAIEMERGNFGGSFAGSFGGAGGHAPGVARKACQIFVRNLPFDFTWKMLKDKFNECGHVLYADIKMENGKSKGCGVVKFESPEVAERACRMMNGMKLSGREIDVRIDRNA
Method in brief: (§1)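 Free RNA oligos (0 nM to 30 μM) competed for 1 h at 4°C in HEK293-FT lysate (2.5 mg protein/well) before a 30 min, 4°C pulldown with the same oligos on NHS-Sepharose beads. Bound proteins were quantified by label-free LC-MS/MS and normalised to the control. Kd was found by multiplying EC50, from a four-parameter log-logistic fit, by a protein-dependent depletion factor.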

[2] = target: AGO1 (UniProt Q9UL18)
Method in brief: as §1

[3] = target: T2, NONO (UniProt Q15233)
T2 sequence: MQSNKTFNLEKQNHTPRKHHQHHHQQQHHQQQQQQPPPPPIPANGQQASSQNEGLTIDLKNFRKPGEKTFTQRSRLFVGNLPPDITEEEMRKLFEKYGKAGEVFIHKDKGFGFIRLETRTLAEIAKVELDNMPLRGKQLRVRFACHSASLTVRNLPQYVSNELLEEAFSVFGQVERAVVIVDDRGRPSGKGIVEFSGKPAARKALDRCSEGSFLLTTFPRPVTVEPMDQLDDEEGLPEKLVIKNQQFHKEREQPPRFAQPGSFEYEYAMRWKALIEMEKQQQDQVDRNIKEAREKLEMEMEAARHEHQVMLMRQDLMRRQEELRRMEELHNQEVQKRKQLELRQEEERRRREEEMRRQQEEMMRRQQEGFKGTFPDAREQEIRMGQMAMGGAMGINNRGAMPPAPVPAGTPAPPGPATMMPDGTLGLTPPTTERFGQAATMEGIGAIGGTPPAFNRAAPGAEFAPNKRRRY
Method in brief: as §1

[4] = target: T3, UPF1 (UniProt Q92900)
T3 sequence: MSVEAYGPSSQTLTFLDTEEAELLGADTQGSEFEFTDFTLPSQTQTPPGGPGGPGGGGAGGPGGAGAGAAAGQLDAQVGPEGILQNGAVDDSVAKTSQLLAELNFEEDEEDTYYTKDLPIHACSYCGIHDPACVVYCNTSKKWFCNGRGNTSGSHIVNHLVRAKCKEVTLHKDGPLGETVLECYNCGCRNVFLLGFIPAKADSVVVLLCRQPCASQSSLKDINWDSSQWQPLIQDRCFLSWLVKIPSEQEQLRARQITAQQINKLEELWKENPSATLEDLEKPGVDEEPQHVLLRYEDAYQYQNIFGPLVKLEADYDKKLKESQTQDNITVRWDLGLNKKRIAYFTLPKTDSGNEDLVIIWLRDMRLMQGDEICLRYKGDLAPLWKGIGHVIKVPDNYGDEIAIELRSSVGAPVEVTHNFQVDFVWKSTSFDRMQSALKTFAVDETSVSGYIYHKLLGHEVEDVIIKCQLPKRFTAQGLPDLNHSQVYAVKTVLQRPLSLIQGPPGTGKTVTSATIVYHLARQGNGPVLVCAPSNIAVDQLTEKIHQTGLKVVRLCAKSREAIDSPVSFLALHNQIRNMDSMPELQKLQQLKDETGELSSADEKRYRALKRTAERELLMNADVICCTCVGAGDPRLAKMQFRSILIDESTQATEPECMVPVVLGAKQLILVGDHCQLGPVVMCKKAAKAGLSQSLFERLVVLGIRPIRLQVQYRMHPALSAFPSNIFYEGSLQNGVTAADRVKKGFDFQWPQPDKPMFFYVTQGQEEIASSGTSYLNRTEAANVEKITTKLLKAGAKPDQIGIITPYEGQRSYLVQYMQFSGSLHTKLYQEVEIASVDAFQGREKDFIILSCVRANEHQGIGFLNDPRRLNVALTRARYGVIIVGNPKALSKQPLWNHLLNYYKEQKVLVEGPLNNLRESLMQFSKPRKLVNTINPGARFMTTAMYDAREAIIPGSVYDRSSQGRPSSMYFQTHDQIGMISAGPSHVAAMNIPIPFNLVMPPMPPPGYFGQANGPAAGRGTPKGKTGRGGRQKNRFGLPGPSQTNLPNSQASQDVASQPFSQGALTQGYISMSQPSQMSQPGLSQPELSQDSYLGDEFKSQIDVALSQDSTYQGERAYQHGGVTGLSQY
Method in brief: as §1

[5] = target: MRPL21 (UniProt Q7Z2W9)
Method in brief: as §1

[6] = target: MRPL43 (UniProt Q8N983)
Method in brief: as §1

[7] = target: RPSA (UniProt P08865)
Method in brief: as §1

[8] = target: SRSF6 (UniProt Q13247)
SRSF6, sequence (Q13247 whole entry, looked up): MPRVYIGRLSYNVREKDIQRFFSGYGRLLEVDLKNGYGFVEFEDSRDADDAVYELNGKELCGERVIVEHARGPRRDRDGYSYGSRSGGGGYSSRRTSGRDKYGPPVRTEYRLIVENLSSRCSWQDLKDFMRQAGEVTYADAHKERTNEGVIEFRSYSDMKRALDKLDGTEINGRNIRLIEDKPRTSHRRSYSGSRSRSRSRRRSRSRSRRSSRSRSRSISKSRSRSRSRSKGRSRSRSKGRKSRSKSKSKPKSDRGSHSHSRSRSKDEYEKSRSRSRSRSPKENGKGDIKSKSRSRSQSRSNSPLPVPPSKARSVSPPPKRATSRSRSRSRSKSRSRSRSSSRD
Method in brief: as §1

With UAUUUAU the EC50 [1] was 6800 nM.

For AAUAAA, the EC50 [2] was 379 nM, the EC50 [3] was 0.302 nM and the EC50 [4] was 4900 nM.

Work on CUGUCCU yielded an EC50 [5] of 151 nM, an EC50 [6] of 104 nM and an EC50 [7] of 491 nM. For the same sequence, the EC50 [8] was 1140 nM.
